Results taken from PMC10170197 (Open Biology, 2023).

Experiments:
GFP-G3BP1-H31YH62Y = molecular target: T1, GFP-G3BP1-H31YH62Y (UniProt Q13283 1-466, H31Y | H62Y); experiment: co-IP; GFP-Trap/anti-GFP beads from lysates of U2OS ΔΔG3BP1/2 cells stably expressing GFP-G3BP1-WT or mutants; EE lysis buffer; Western blot for Caprin-1 and USP10; conditions: partners not purified
T1 construct: G3BP1, full length, fused to GFP; source: U2OS ΔΔG3BP1/2 cells, stably transfected, in lysate

[1] = molecular target: T2, G3BP1-NTF2 (residues 1–139) (UniProt Q13283 1-139); experiment: nanoDSF (thermal shift); G3BP1-NTF2 with 10 x molar excess of peptide, 4% DMSO; 25 mM Na-acetate pH 5.1, 150 mM NaCl, 10 mM MgCl2, 10% glycerol; conditions: both partners purified
T2 construct: G3BP1, NTF2-like domain, residues 1–139; Purified as a dimer; also called G3BP1-NTF2-WT; NTF2-WT; source: E. coli, purified (IMAC, Superdex 75 SEC, TEV cleavage, IMAC flow-through, SEC)
T2 sequence (Q13283 1-139): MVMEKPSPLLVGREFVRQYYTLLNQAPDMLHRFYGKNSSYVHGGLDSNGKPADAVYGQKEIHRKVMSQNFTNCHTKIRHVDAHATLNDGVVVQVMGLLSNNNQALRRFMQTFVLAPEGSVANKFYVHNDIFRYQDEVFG

NTF2-H31YH62Y = molecular target: T3, NTF2-H31YH62Y (UniProt Q13283 1-139, H31Y | H62Y); experiment: nanoDSF (thermal shift); G3BP1-NTF2 with 10 x molar excess of peptide, 4% DMSO; 25 mM MES pH 6.1, 150 mM NaCl, 10 mM MgCl2, 10% glycerol; conditions: both partners purified
T3 construct: G3BP1 NTF2-like domain (limits as the G3BP1-NTF2 construct, residues 1–139) with H31Y and H62Y; also called G3BP1-NTF2-H31YH62Y
T3 sequence (Q13283 1-139 H31Y/H62Y): as the sequence (Q13283 1-139) above, with H31Y, H62Y counted along it

[2] = molecular target: T2, G3BP1-NTF2 (residues 1–139); experiment: as above; conditions: both partners purified
[3] = molecular target: T2, G3BP1-NTF2 (residues 1–139); experiment: nanoDSF (thermal shift); G3BP1-NTF2 with 10 x molar excess of peptide, 4% DMSO; neutral pH (7.4); buffers as for ITC; conditions: both partners purified

T1 sequence (Q13283 whole entry H31Y/H62Y, the tested form may be a part): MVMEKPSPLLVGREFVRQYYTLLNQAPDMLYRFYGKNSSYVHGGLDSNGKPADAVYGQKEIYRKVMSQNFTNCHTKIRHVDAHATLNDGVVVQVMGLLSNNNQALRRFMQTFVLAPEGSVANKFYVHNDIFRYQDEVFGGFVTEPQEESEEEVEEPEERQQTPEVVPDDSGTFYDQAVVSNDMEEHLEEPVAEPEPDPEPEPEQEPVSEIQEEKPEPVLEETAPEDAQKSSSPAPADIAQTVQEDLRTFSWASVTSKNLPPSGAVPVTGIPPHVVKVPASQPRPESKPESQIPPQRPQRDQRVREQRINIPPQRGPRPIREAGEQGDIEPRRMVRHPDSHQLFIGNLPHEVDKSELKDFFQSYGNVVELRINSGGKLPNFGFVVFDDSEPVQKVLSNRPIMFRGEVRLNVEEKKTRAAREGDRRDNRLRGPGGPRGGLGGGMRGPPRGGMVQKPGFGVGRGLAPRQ

B1: Caprin-1, endogenous in U2OS ΔΔG3BP1/2 cells (natural protein, human (endogenous in U2OS), UniProt Q14444 1-709, looked up)
chain: MPSATSHSGSGSKSSGPPPPSGSSGSEAAAGAGAAAPASQHPATGTGAVQTEAMKQILGVIDKKLRNLEKKKGKLDDYQERMNKGERLNQDQLDAVSKYQEVTNNLEFAKELQRSFMALSQDIQKTIKKTARREQLMREEAEQKRLKTVLELQYVLDKLGDDEVRTDLKQGLNGVPILSEEELSLLDEFYKLVDPERDMSLRLNEQYEHASIHLWDLLEGKEKPVCGTTYKVLKEIVERVFQSNYFDSTHNHQNGLCEEEEAASAPAVEDQVPEAEPEPAEEYTEQSEVESTEYVNRQFMAETQFTSGEKEQVDEWTVETVEVVNSLQQQPQAASPSVPEPHSLTPVAQADPLVRRQRVQDLMAQMQGPYNFIQDSMLDFENQTLDPAIVSAQPMNPTQNMDMPQLVCPPVHSESRLAQPNQVPVQPEATQVPLVSSTSEGYTASQPLYQPSHATEQRPQKEPIDQIQATISLNTDQTTASSSLPAASQPQVFQAGTSKPLHSSGINVNAAPFQSMQTVFNMNAPVPPVNEPETLKQQNQYQASYNQSFSSQPHQVEQTELQQEQLQTVVGTYHGSPDQSHQVTGNHQQPPQQNTGFPRSNQPYYNSRGVSRGGSRGARGLMNGYRGPANGFRGGYDGYRPSFSNTPNSGYTQSQFSAPRDYSGYQRDGYQQNFKRGSGQSGPRGAPRGRGGPPRPNRGMPQMNTQQVN
notes: Caprin-1, endogenous protein detected by Western blot; source: endogenous, U2OS ΔΔG3BP1/2 lysate
- reduction of co-precipitated Caprin-1 relative to wild-type G3BP1 (GFP-G3BP1-H31YH62Y): ~50%

B2: Caprin-1^356–386 peptide (peptide)
peptide: RQRVQDLMAQMQGPYNFIQDSMLDFENQTLD
notes: Used for co-crystallisation and as peptide ligand in nanoDSF; also called Caprin-1-derived SLiM; source: synthetic peptide
- ΔTm (ligand-binding-induced stabilization of NTF2) [1]: 5.5 °C
- binding result (NTF2-H31YH62Y): binds
- ΔTm (ligand-binding-induced stabilization of NTF2) [2]: 2.5 °C
- ΔTm (ligand-binding-induced stabilization of NTF2) [3]: 3 °C
